According to publication PMC7924758, “IAA3-mediated repression of PIF proteins coordinates light and auxin signaling in Arabidopsis” (PLoS Genetics, 2021):

Target: T1, His-PIF1 (Arabidopsis thaliana, UniProt Q8GZM7 1-478)
T1 construct: also called His-tagged PIF1; source: E. coli Transetta (DE3), purified (Ni-NTA agarose)
T1 sequence (looked up): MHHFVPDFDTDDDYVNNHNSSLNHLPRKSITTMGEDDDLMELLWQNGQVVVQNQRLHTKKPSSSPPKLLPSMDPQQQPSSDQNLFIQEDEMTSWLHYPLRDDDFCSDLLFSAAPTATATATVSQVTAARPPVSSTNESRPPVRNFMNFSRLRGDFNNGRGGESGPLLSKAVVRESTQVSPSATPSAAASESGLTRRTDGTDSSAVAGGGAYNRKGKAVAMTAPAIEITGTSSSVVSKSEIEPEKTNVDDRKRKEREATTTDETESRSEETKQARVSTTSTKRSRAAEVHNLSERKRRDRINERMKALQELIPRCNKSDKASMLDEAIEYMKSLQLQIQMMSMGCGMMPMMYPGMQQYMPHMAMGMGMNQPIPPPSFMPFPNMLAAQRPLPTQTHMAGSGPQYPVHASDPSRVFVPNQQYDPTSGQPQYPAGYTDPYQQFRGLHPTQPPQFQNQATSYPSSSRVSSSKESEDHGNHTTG
Assay: pull-down; MBP or MBP-IAA3 held on amylose resin, His-PIF1 or His-PIF4 added, 3 h at 4°C; 50 mM Tris-Cl pH 8.0, 150 mM NaCl, 10% glycerol, 0.5 mM EDTA, 0.1% Triton X-100, 5 mM β-mercaptoethanol; five washes; blots with anti-MBP and anti-His
Conditions: both partners purified

binding result: binds
B1: MBP-IAA3 (natural protein, Arabidopsis thaliana, UniProt Q38822 1-189, looked up)
chain: MDEFVNLKETELRLGLPGTDNVCEAKERVSCCNNNNKRVLSTDTEKEIESSSRKTETSPPRKAQIVGWPPVRSYRKNNIQSKKNESEHEGQGIYVKVSMDGAPYLRKIDLSCYKGYSELLKALEVMFKFSVGEYFERDGYKGSDFVPTYEDKDGDWMLIGDVPWEMFICTCKRLRIMKGSEAKGLGCGV
notes: IAA3 (SHY2), AUX/IAA transcriptional repressor, Arabidopsis; also called SHY2; source: E. coli Transetta (DE3), purified (amylose agarose)
